# Assay results reported in patent US20220048967A1 (published 2022).
# Positions count from the first letter of the chain named. Numbered stars: 1 amine (or outer) side, 2 acyl side, 3 side chain; on linkers, the order of the positions; unused ones are H or OH. Square brackets hold non-standard residues; d marks the D form. Side chains are listed from the residue outwards. Ends that are not written are not given here. * marks the point of attachment. C20 diacid = O=C(O)CCCCCCCCCCCCCCCCCCC(=O)*; αMePhe(2-F) = C[C@](N)(Cc1ccccc1F)C(=O)O; γGlu = O=C(O)[C@H](CCC(=O)[*:2])N[*:1]; αMeF = C[C@](N)(Cc1ccccc1)C(=O)O; AEEA = NCCOCCOCC(=O)O; Aib = CC(C)(N)C(=O)O
# B1: Example 152 (peptide)
# peptide: Y[Aib]EGT[αMePhe(2-F)]TSDYSIXLDEKAQ[Aib]EFI[Aib]YLIEGGPSSGAPPPS-NH2
# modifications: not fully specified (residues 13, 17); printed as Y-Aib-EGT-αMeF(2F)-TSDYSI-αMeF-LDEK((2-[2-(2-Amino-ethoxy)-ethoxy]-acetyl)2-(γ-Glu)-CO-(CH2)18-CO2H)AQ-Aib-EFI-Aib-YLIEGGPSSGAPPPS-NH2
# B2: Example 153 (peptide)
# peptide: Y[Aib]EGT[αMePhe(2-F)]TSDYSIXLDEKAQ[Aib]EFIHYLIEGGPSSGAPPPS-NH2
# modifications: not fully specified (residues 13, 17); printed as Y-Aib-EGT-αMeF(2F)-TSDYSI-αMeF-LDEK((2-[2-(2-Amino-ethoxy)-ethoxy]-acetyl)2-(γ-Glu)-CO-(CH2)18-CO2H)AQ-Aib-EFIHYLIEGGPSSGAPPPS-NH2
# B3: Example 154 (peptide)
# peptide: Y[Aib]EGT[αMePhe(2-F)]TSDHSIXLDEKAQ[Aib]EFIEYLIEGGPSSGAPPPS-NH2
# modifications: not fully specified (residues 13, 17); printed as Y-Aib-EGT-αMeF(2F)-TSDHSI-αMeF-LDEK((2-[2-(2-Amino-ethoxy)-ethoxy]-acetyl)2-(γ-Glu)-CO-(CH2)18-CO2H)AQ-Aib-EFIEYLIEGGPSSGAPPPS-NH2
# B4: Example 159 (peptide)
# peptide: Y[Aib]EGT[αMePhe(2-F)]TSD[αMeF]SIXLDEKAQ[Aib]EFIEYLIEGGPSSGAPPPS-NH2
# modifications: not fully specified (residues 13, 17); printed as Y-Aib-EGT-αMeF(2F)-TSD-αMeF-SI-αMeF-LDEK((2-[2-(2-Amino-ethoxy)-ethoxy]-acetyl)2-(γ-Glu)-CO-(CH2)18-CO2H)AQ-Aib-EFIEYLIEGGPSSGAPPPS-NH2
# B5: Example 160 (peptide)
# peptide: YXEGTXTSDXSIXLDEKAQXTFIXYLIEGGPSSGAPPPS
# modifications: Y-Aib-EGT-αMeF(2F)-TSD-Aib-SI-αMeF-LDEK((2-[2-(2-Amino-ethoxy)-ethoxy]-acetyl)2-(γ-Glu)-CO-(CH2)18-CO2H)AQ-Aib-TFI-(D-Glu)-YLIEGGPSSGAPPPS-NH2
# B6: Example 161 (peptide)
# peptide: Y[Aib]EGT[αMePhe(2-F)]TSDHSI[αMeF]LDEK([AEEA-AEEA-γGlu-γGlu-C20 diacid])AQ[Aib]TFI[dE]YLIEGGPSSG-NH2
# modifications: N-terminus assumed
# SMILES: CC[C@H](C)[C@H](NC(=O)[C@H](CC(C)C)NC(=O)[C@H](Cc1ccc(O)cc1)NC(=O)[C@@H](CCC(=O)O)NC(=O)[C@@H](NC(=O)[C@H](Cc1ccccc1)NC(=O)[C@@H](NC(=O)C(C)(C)NC(=O)[C@H](CCC(N)=O)NC(=O)[C@H](C)NC(=O)[C@H](CCCCNC(=O)COCCOCCNC(=O)COCCOCCNC(=O)CC[C@H](NC(=O)CC[C@H](NC(=O)CCCCCCCCCCCCCCCCCCC(=O)O)C(=O)O)C(=O)O)NC(=O)[C@H](CCC(=O)O)NC(=O)[C@H](CC(=O)O)NC(=O)[C@H](CC(C)C)NC(=O)[C@](C)(Cc1ccccc1)NC(=O)[C@@H](NC(=O)[C@H](CO)NC(=O)[C@H](Cc1c[nH]cn1)NC(=O)[C@H](CC(=O)O)NC(=O)[C@H](CO)NC(=O)[C@@H](NC(=O)[C@](C)(Cc1ccccc1F)NC(=O)[C@@H](NC(=O)CNC(=O)[C@H](CCC(=O)O)NC(=O)C(C)(C)NC(=O)[C@@H](N)Cc1ccc(O)cc1)[C@@H](C)O)[C@@H](C)O)[C@@H](C)CC)[C@@H](C)O)[C@@H](C)CC)C(=O)N[C@@H](CCC(=O)O)C(=O)NCC(=O)NCC(=O)N1CCC[C@H]1C(=O)N[C@@H](CO)C(=O)N[C@@H](CO)C(=O)NCC(N)=O
# B7: Example 162 (peptide)
# peptide: Y[Aib]EGT[αMePhe(2-F)]TSDHSI[αMeF]LDEK([AEEA-AEEA-γGlu-γGlu-C20 diacid])AQ[Aib]TFI[dE]HLIEGGPSSG-NH2
# modifications: N-terminus assumed
# SMILES: CC[C@H](C)[C@H](NC(=O)[C@H](CC(C)C)NC(=O)[C@H](Cc1c[nH]cn1)NC(=O)[C@@H](CCC(=O)O)NC(=O)[C@@H](NC(=O)[C@H](Cc1ccccc1)NC(=O)[C@@H](NC(=O)C(C)(C)NC(=O)[C@H](CCC(N)=O)NC(=O)[C@H](C)NC(=O)[C@H](CCCCNC(=O)COCCOCCNC(=O)COCCOCCNC(=O)CC[C@H](NC(=O)CC[C@H](NC(=O)CCCCCCCCCCCCCCCCCCC(=O)O)C(=O)O)C(=O)O)NC(=O)[C@H](CCC(=O)O)NC(=O)[C@H](CC(=O)O)NC(=O)[C@H](CC(C)C)NC(=O)[C@](C)(Cc1ccccc1)NC(=O)[C@@H](NC(=O)[C@H](CO)NC(=O)[C@H](Cc1c[nH]cn1)NC(=O)[C@H](CC(=O)O)NC(=O)[C@H](CO)NC(=O)[C@@H](NC(=O)[C@](C)(Cc1ccccc1F)NC(=O)[C@@H](NC(=O)CNC(=O)[C@H](CCC(=O)O)NC(=O)C(C)(C)NC(=O)[C@@H](N)Cc1ccc(O)cc1)[C@@H](C)O)[C@@H](C)O)[C@@H](C)CC)[C@@H](C)O)[C@@H](C)CC)C(=O)N[C@@H](CCC(=O)O)C(=O)NCC(=O)NCC(=O)N1CCC[C@H]1C(=O)N[C@@H](CO)C(=O)N[C@@H](CO)C(=O)NCC(N)=O
# B8: Example 163 (peptide)
# peptide: H[Aib]EGT[αMePhe(2-F)]TSDYSI[αMeF]LDEK([AEEA-AEEA-γGlu-C20 diacid])AQ[Aib]EFIEYLIEGGPSSGAPPPS-NH2
# modifications: N-terminus assumed
# SMILES: CC[C@H](C)[C@H](NC(=O)[C@H](CC(C)C)NC(=O)[C@H](Cc1ccc(O)cc1)NC(=O)[C@H](CCC(=O)O)NC(=O)[C@@H](NC(=O)[C@H](Cc1ccccc1)NC(=O)[C@H](CCC(=O)O)NC(=O)C(C)(C)NC(=O)[C@H](CCC(N)=O)NC(=O)[C@H](C)NC(=O)[C@H](CCCCNC(=O)COCCOCCNC(=O)COCCOCCNC(=O)CC[C@H](NC(=O)CCCCCCCCCCCCCCCCCCC(=O)O)C(=O)O)NC(=O)[C@H](CCC(=O)O)NC(=O)[C@H](CC(=O)O)NC(=O)[C@H](CC(C)C)NC(=O)[C@](C)(Cc1ccccc1)NC(=O)[C@@H](NC(=O)[C@H](CO)NC(=O)[C@H](Cc1ccc(O)cc1)NC(=O)[C@H](CC(=O)O)NC(=O)[C@H](CO)NC(=O)[C@@H](NC(=O)[C@](C)(Cc1ccccc1F)NC(=O)[C@@H](NC(=O)CNC(=O)[C@H](CCC(=O)O)NC(=O)C(C)(C)NC(=O)[C@@H](N)Cc1c[nH]cn1)[C@@H](C)O)[C@@H](C)O)[C@@H](C)CC)[C@@H](C)CC)C(=O)N[C@@H](CCC(=O)O)C(=O)NCC(=O)NCC(=O)N1CCC[C@H]1C(=O)N[C@@H](CO)C(=O)N[C@@H](CO)C(=O)NCC(=O)N[C@@H](C)C(=O)N1CCC[C@H]1C(=O)N1CCC[C@H]1C(=O)N1CCC[C@H]1C(=O)N[C@@H](CO)C(N)=O
# B9: Example 164 (peptide)
# peptide: B5 peptide with X10H, E28X
# modifications: Y-Aib-EGT-αMeF(2F)-TSDHSI-αMeF-LDEK((2-[2-(2-Amino-ethoxy)-ethoxy]-acetyl)2-(γ-Glu)-CO-(CH2)18-CO2H)AQ-Aib-TFI-(D-Glu)-YLI-(D-Glu)-GGPSSGAPPPS-NH2
# B10: Example 165 (peptide)
# peptide: Y[Aib]EGT[αMePhe(2-F)]TSDHSI[αMeF]LDEK([AEEA-AEEA-γGlu-C20 diacid])AQ[Aib]TFI[dE][αMeF]LI[dE]GGPSSGAPPPS-NH2
# modifications: N-terminus assumed
# SMILES: CC[C@H](C)[C@H](NC(=O)[C@H](CC(C)C)NC(=O)[C@](C)(Cc1ccccc1)NC(=O)[C@@H](CCC(=O)O)NC(=O)[C@@H](NC(=O)[C@H](Cc1ccccc1)NC(=O)[C@@H](NC(=O)C(C)(C)NC(=O)[C@H](CCC(N)=O)NC(=O)[C@H](C)NC(=O)[C@H](CCCCNC(=O)COCCOCCNC(=O)COCCOCCNC(=O)CC[C@H](NC(=O)CCCCCCCCCCCCCCCCCCC(=O)O)C(=O)O)NC(=O)[C@H](CCC(=O)O)NC(=O)[C@H](CC(=O)O)NC(=O)[C@H](CC(C)C)NC(=O)[C@](C)(Cc1ccccc1)NC(=O)[C@@H](NC(=O)[C@H](CO)NC(=O)[C@H](Cc1c[nH]cn1)NC(=O)[C@H](CC(=O)O)NC(=O)[C@H](CO)NC(=O)[C@@H](NC(=O)[C@](C)(Cc1ccccc1F)NC(=O)[C@@H](NC(=O)CNC(=O)[C@H](CCC(=O)O)NC(=O)C(C)(C)NC(=O)[C@@H](N)Cc1ccc(O)cc1)[C@@H](C)O)[C@@H](C)O)[C@@H](C)CC)[C@@H](C)O)[C@@H](C)CC)C(=O)N[C@H](CCC(=O)O)C(=O)NCC(=O)NCC(=O)N1CCC[C@H]1C(=O)N[C@@H](CO)C(=O)N[C@@H](CO)C(=O)NCC(=O)N[C@@H](C)C(=O)N1CCC[C@H]1C(=O)N1CCC[C@H]1C(=O)N1CCC[C@H]1C(=O)N[C@@H](CO)C(N)=O
# Target: human GLP-1 receptor (GLP-1R) (human, UniProt P43220 24-463)
# Test: cell-based or functional assay
Binder,hGLP1R cAMP EC50 ratio,hGLP1R cAMP Rel EC50
B1,0.484,0.0915 nM
B2,0.501,0.0904 nM
B3,1.23,0.0393 nM
B4,0.176,0.33 nM
B5,1.24,0.0461 nM
B6,0.0121,4.8 nM
B7,0.00161,36 nM
B8,1.54,0.0316 nM
B9,0.00373,15.6 nM
B10,0.01,5.81 nM

# Target: T1, human gastric inhibitory peptide receptor (GIPR) (human, UniProt P48546 22-466)
# T1 sequence (looked up): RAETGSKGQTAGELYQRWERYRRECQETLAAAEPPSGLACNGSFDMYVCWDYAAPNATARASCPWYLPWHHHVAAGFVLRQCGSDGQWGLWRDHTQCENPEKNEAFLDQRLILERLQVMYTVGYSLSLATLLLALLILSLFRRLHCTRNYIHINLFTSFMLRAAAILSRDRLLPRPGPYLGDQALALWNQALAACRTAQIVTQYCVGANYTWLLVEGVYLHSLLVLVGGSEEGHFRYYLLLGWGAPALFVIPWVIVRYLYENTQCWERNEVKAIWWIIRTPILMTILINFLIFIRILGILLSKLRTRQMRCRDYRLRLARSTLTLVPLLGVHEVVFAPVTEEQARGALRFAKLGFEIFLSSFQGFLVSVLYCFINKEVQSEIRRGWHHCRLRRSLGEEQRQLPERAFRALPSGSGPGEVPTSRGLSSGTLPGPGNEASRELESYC
# Test: cell-based or functional assay
Binder,hGIPR cAMP EC50 ratio,hGIPR cAMP Rel EC50
B1,2.57,0.0504 nM
B2,1.7,0.0634 nM
B3,5.9,0.0266 nM
B4,0.039,4.6 nM
B5,0.00712,21 nM
B6,0.706,0.254 nM
B7,0.0393,4.56 nM
B8,1.29,0.121 nM
B9,0.0581,3.09 nM
B10,0.172,1.04 nM
